# Patent publication US12280095B2, “Tissue modifier and uses therefor” (Fibrosoft Pte Ltd, priority 2021, dated 2025)
# B1: ALTEPLASE: tissue plasminogen activator (tPA), collagenase-producing agent; comparator when administered on its own (protein, UniProt P00750 36-562, looked up)
# Tissue-type plasminogen …: SYQVICRDEKTQMIYQQHQSWLRPVLRSNRVEYCWCNSGRAQCHSVPVKSCSEPRCFNGGTCQQALYFSDFVCQCPEGFAGKCCEIDTRATCYEDQGISYRGTWSTAESGAECTNWNSSALAQKPYSGRRPDAIRLGLGNHNYCRNPDRDSKPWCYVFKAGKYSSEFCSTPACSEGNSDCYFGNGSAYRGTHSLTESGASCLPWNSMILIGKVYTAQNPSAQALGLGKHNYCRNPDGDAKPWCHVLKNRRLTWEYCDVPSCSTCGLRQYSQPQFRIKGGLFADIASHPWQAAIFAKHRRSPGERFLCGGILISSCWILSAAHCFQERFPPHHLTVILGRTYRVVPGEEEQKFEVEKYIVHKEFDDDTYDNDIALLQLKSDSSRCAQESSVVRTVCLPPADLQLPDWTECELSGYGKHEALSPFYSERLKEAHVRLYPSSRCTSQHLLNRTVTDNMLCAGDTRSGGPQANLHDACQGDSGGPLVCLNDGRMTLVGIISWGLGCGQKDVPGVYTKVTNYLDWIRDNMRP
# Test system: Dupuytren's disease
# Experiment: Treatment of Dupuytren's disease patients by intralesional injection of tPA in combination with hyaluronidase
# Format: in vivo, human
molecule,measurement,setting,value
B1,"mean time required to observe discernible reduction in volume of the fibromatosis, reduction of contracture and improvement in the range of motion","ALTEPLASE administered on its own, patients with Dupuytren's disease",4-6 weeks
same,"time required to obtain similar effects (volume reduction, flexion improvement)",ALTEPLASE alone,4-6 weeks
